Assay results as given in patent US20100068807.

Target: GST fusion IRF7 (GST fused to amino acids 422-457 of mouse IRF-7, from pGST-IRF7) [GST: P08515]

B1: 6myc-mIKKα (wild-type mouse IKKα with 6 myc tags, expressed from pSRα-6myc-mIKKα in 293T cells) (protein)
chain: MERPPGLRPGAGGPWEMRERLGTGGFGNVSLYQHRELDLKIAIKSCRLELSSKNRERWCHEIQIMKKLDHANVVKACDVPEELNFLINDVPLLAMEYCSGGDLRKLLNKPENCCGLKESQILSLLSDIGSGIRYLHENKIIHRDLKPENIVLQDVGGKTIHKIIDLGYAKDVDQGSLCTSFVGTLQYLAPELFENKPYTATVDYWSFGTMVFECIAGYRPFLHHLQPFTWHEKIKKKDPKCIFACEEMTGEVRFSSHLPQPNSLCSLIVEPMESWLQLMLNWDPQQRGGPIDLTLKQPRCFALMDHILNLKIVHILNMTSAKIISFLLPCDESLHSLQSRIERETGINTGSQELLSETGISLDPRKPASQCVLDGVRGCDSYMVYLFDKSKTVYEGPFASRSLSDCVNYIVQDSKIQLPIIQLRKVWAEAVHYVSGLKEDYSRLFQGQRAAMLSLLRYNANLTKMKNTLISASQQLKAKLEFFRKSIQLDLERYSEQMTYGISSEKMLKAWKEMEEKAIHYSEVGVIGYLEDQIMSLHTEIMELQKSPYGRRQGDLMESLEQRAIDLYKQLKHRPPDHLYSDSTEMVKIIVHTVQSQDRVLKELFGHLSKLLGCKQKIIDLLPKVEVALSNIKEADNTVMFMQGKRQKEIWHLLKIACTQSSARSLVGSSLEGTVTPPVSAWLPPTLADREHPLTCVVTPQDGETLAQMIEENLNCLGHLSTIIREANEDQSSSLMSLDWSWLAE
phosphorylation of substrate (in vitro kinase assay with [γ-32P]ATP, SDS-PAGE and autoradiography): IRF7 was phosphorylated by IKKα
